Laboratory results from patent publication US11739318B1, “Modified biosensors and biocatalysts and methods of use” (priority 2017, dated 2023).
Where a chain is given by its changes, count along the chain named. Names may count otherwise.

Columns and labels:
ccMA = assay: Intracellular ccMA sensing with CatM sensor in strain CJ184, flow cytometry; type: cell-based, P. putida
Source text: FIG. 14A represents the Acinetobacter baylyi CatM promoter region used for selection of ccMA sensing in P. putida KT2440. The regions that were partially diversified or completely randomized are marked ‘red’ and the mutations pursued are labeled. For example −10 and −35 sites were partially randomized for saturation, the ribosome binding site (RBS) was made compatible to the consensus sequence AAGGAG followed by eight bases to the start codon “ATG” of the reporter. Overall the library diversity was expected to be well above 60,000. Using a method similar to what has been described in Example 1-3, catM gene, diversified regulatory region, and sfgfp were inserted into the pBTL2 backbone. The completed circular plasmids, carrying Kanamycin resistance marker, were then transformed into electrocompetent cells of P. putida strain CJ184. The transformation gave well above 60,000 colonies to cover the library adequately. […] Post 16 h of growth at 30° C., the samples were analyzed on a flow cytometer (BD FACSAria III). […] Post third round of sorted population, a fraction was plated on LB agar+Kan50 plates and a few colonies evaluated for PCA, Benzoate and Catechol response, considering CJ184 strain is capable of converting them all to final product ccMA. […]

[1] = individual mutations, hydrolysis of OPs; cited from earlier work
[2] = PON1 expression and solubility from fluorescence of the cell lysate; set-up: species or system E. coli; conditions: based on the fluorescence of the cell lysate
Experimental: The clones were further confirmed for improved activity by using clear cell lysates that were normalized for sfGFP fluorescence (the enzyme variants expressed as sfGFP-PON1 fusion by inducing the same clones with 200 μM pNP) and assayed for activity at different concentrations of PXN. […] The most notable aspect of comparison between the in vivo activity measurements (FIG. 17D) and the in vitro measurements (FIG. 17E) is the relative ranking of the different PON1 variants. While Lib1-C3.3 did show highest Vmax in both formats of experiment, the Lib2-D12 was the lowest in both cases. […] The solubility of other PON1 variants ranged between these two extreme values.

[3] = Paraoxonase activity of purified PON1 variants (pNP absorbance 410 nm); type: biochemical; conditions: 400 μM PXN
Experimental: (§1) FIGS. 17A-17G show evolution of PON1. […] Residue positions varied in library construction are indicated. […] The circled region is magnified (inset) for easy visualization of the bright colony. […] The contrast ratio is defined as total fluorescence of the cells in the presence of PXN over the background fluorescence of the cells in the absence of PXN. […] The product, pNP, is measured by absorbance (410 nm). Error bars are standard deviation from two independent assays with different fractions from size exclusion chromatography. […] Error bars are the standard deviation of two independent assays using elution fractions from first half and second half of the chromatogram peak from size exclusion chromatography.
Finally, the gene for top PON1 variant Lib1-C3.3 (H115W, L69V, K70Q, Y71L, G73A) and the scaffold (H115W) were transferred to a pRSF-1b vector (Novagen) and expressed as a C-terminal 6×His-tagged protein. Post two-step purification using affinity column and a size exclusion chromatography, pure fractions were combined and tested for activity at varying concentrations of PXN. […]

pNP sensor = assay: Raw whole cell fluorescence with pNP sensor and sfGFP-PON1 under positive feedback regulation, flow cytometer; type: cell-based, E. coli; conditions: mean of duplicate cultures ± SD
Source text: FIGS. 16A-16D show ‘Catalyze’ and ‘sense’ system for hydrolysis reactions. […] UI: background fluorescence from cells without any pNP source to induce the TF; […]; pNP: TF induced by exogenously supplied pNP as a control/reference. […] Relative activity levels are distinguishable by eye.
The technique described here (referred to in this example as “smart microbial cells” or SMC; e.g., FIGS. 1A and 1B) allows for catalysis and sensing in the same microbial cell. For a practical library application, we simplified and improved the signal to noise ratio of the biosensor. This was achieved by gene fusing the PON1 to the GFP so that the TF is also regulating the catalytic enzyme expression as well (scheme shown in FIG. 1B). This fusion is expected to have three distinct effects. First, it provides positive feedback, such that more the activity, the more PON1 is expressed, and in turn further ‘feeds’ the activity. […] Second, feedback will amplify the already present correlation between activity and GFP expression. Third, for suitably chosen GFP, the fluorescence signal conveniently reports the amount of fused PON1 present, allowing normalization for specific activity.
. Based on the catalytic efficiency and the cytoplasmic concentration of the hydrolase, PXN hydrolysis results in a correlated pNP production inside the microbial cell that ultimately determines activation of the pNP sensor and accumulation of sfGFP in the cells. […] When pNP was used as an inducer, such that the expression of sfGFP-PON1 expression is independent of the catalytic efficiency of PON1, modest differences in cell fluorescence were still captured across the PON1 variants indicating V346A mutation could be detrimental to PON1 expression and stability (FIG. 16C, Table 6).

PXN = assay: Whole cell catalysis and sensing of PON1 clones at varying PXN (contrast ratio); type: cell-based, E. coli; conditions: scaffold PON1-H115W
Experimental: as §1
In order to efficiently screen the library, the biosensor/biocatalyst plasmid consisting of variants of PON1 was directly transferred to high transformation efficiency DH5α cells. […] The colony picking can further be made more stringent by using lower PXN (for example 100 μM) in the growth media and colonies selected based on the fluorescence intensity under an illuminator.
The clones were further confirmed for improved activity by using clear cell lysates that were normalized for sfGFP fluorescence (the enzyme variants expressed as sfGFP-PON1 fusion by inducing the same clones with 200 μM pNP) and assayed for activity at different concentrations of PXN. […]

B1: CatM_C2.9: CatM variant V97I, G127A, T128A, L147V with weaker ccMA sensitivity, SEQ ID NO: 25 (protein)
chain: MELRHLRYFVTVVEEQSISKAAEKLCIAQPPLSRQIQKLEEELGIQLFERGFRPAKVTEAGMFFYQHAVQILTHTAQASSMAKRIATVSQTLRIGYISSLLYGLLPEIIYLFRQQNPEIHIELIECAAKDQINALKQGKIDLGFGRVKITDPAIRRIVLHKEQLKLAIHKHHHLNQFAATGVHLSQIIDEPMLLYPVSQKPNFATFIQSLFTELGLVPSKLTEIREIQLALGLVAAGEGVCIVPASAMDIGVKNLLYIPILDDDAYSPISLAVRNMDHSNYIPKILACVQEVFATHHIRPLIE
modifications: CatM_C2.9
In the case of B1, the “ccMA titer for dose-response (low sensitivity)” value (ccMA; CJ184) is reported as over 10 mM.

B2: L69V: PON1 individual point mutation L69V from the literature (protein, UniProt P27169 2-355, looked up, variant L69V)
Serum …: AKLIALTLLGMGLALFRNHQSSYQTRLNALREVQPVELPNCNLVKGIETGSEDLEILPNGLAFISSGVKYPGIKSFNPNSPGKILLMDLNEEDPTVLELGITGSKFDVSSFNPHGISTFTDEDNAMYLLVVNHPDAKSTVELFKFQEEEKSLLHLKTIRHKLLPNLNDIVAVGPEHFYGTNDHYFLDPYLQSWEMYLGLAWSYVVYYSPSEVRVVAEGFDFANGINISPDGKYVYIAELLAHKIHVYEKHANWTLTPLKSLDFNTLVDNISVDPETGDLWVGCHPNGMKIFFYDSENPPASEVLRIQNILTEEPKVTQVYAENGTVLQGSTVASVYKGKLLIGTVFHKALYCEL
For B2, the “higher catalytic efficiency over the wild-type” value [1] is given as “four- to sixteen and four”.

B3: Lib1-C3.3: top PON1 variant (H115W, L69V, K70Q, Y71L, G73A) (protein, UniProt P27169 2-355, looked up, variant H115W L69V K70Q Y71L G73A)
Serum …: B2 Serum … with K69Q, Y70L, G72A, H114W
With B3 the “protein yield compared to the scaffold” value [2] was 95%, the “turnover number higher than the starting sequence” value [3] was “approximately thirty” and the “linear rate exceeding that of PON1-H115W” value ([3]; at ten-fold lower protein concentration) was “three”.

B4: V346A: published PON1 variant with mutation V346A (protein, UniProt P27169 2-355, looked up, variant V346A)
Serum …: B2 Serum … with V68L, V345A
With B4 the “Raw whole cell fluorescence intensity, PXN (1.6 mM)” value (pNP sensor; exogenous paraoxon 1.6 mM) was 895 ± 39, the “Raw whole cell fluorescence intensity, pNP (200 μM)” value (pNP sensor; induced with exogenous pNP 200 μM) was 6263 ± 57 and the “Raw whole cell fluorescence intensity, UI” value (pNP sensor; uninduced, no pNP source) was 174 ± 29. For the same molecule, the “higher catalytic efficiency over the wild-type” value [1] was “four- to sixteen”.

B5: Lib2-D12: PON1 clone from Lib2, H115W scaffold with F222I, F292I (protein, UniProt P27169 2-355, looked up, variant H115W F222I F292I)
Serum …: B2 Serum … with V68L, H114W, F221I, F291I
In the case of B5, the “protein yield compared to the scaffold” value [2] is reported as 50% and the “contrast ratio higher than the scaffold” value (PXN) is reported as 2 fold.

B6: CatM_A9: CatM regulated promoter variant for reduced signal output, SEQ ID NO: 23 (nucleic acid)
DNA: TTATACGCCCTAATTGGTTTTATATACCTTTTTAGTATGCAAAAATACCAAATTGGTGTGGATTTTTATTATTACATTAATTTACAGTATGTAAATAGTATTTATTGAAAAGAAGATGGACCG
modifications: listed as DNA, chemistry not fully specified
For B6, the fluorescence and dose-response (ccMA; compared with CatM_C2) was “weaker fluorescence but very similar dose-response as the CatM_C2”.
